Where two headings read alike, the source gives them in different places.
Key:
[1] = test system: cUNG (Atlantic cod uracil-DNA glycosylase); experiment: Product inhibition of cUNG with free uracil; format: biochemical, Atlantic cod (Gadus morhua)
Experimental: Different concentrations of uracil was added to the assay mixture and the assay performed as described in material and methods. Uracil-DNA glycosylase activity was measured in a final volume of 20 μl, containing 70 mM Tris/HCl, 10 mM NaCl, 1 mM EDTA, 100 μg/ml BSA and 230 ng nick-substrate or 71 ng PCR-substrate. The reaction mixture was incubated 10 min at 37° C., and terminated with the addition of 20 μl of ice cold single stranded calf thymus DNA (1 mg/ml) and 500 μl 10% (w/v) TCA. Samples were incubated on ice for 15 min, and centrifuged at 16,000 g for 10 min. Supernatants with acid soluble ^3H-uracil were analyzed using a liquid scintillation counter. Activity measurements using PCR-substrate were performed with 6.65×10^−4 U of purified cUNG. Various concentrations of uracil (0, 1, 2 and 5 mM) or Ugi-inhibitor (1.25×10^3 U to 2.00×10^2 U) were added to the assay mixtures (on ice). Activity was then measured as described under standard assay conditions.

[2] = Effect of temperature on stability (half-life of UNG activity); format: physicochemical
Experimental: Enzyme (1 U) were incubated at 50° C., 37° C., 25° C. and 4° C., and 5 μl aliquotes were transferred to the assay mixture after different time intervals, and standard assays were performed as described in material and methods. Half-lifes were determined to 0.5 min (50° C.), 20 min (37° C.), 60 min (25° C.) and 2 h (4° C.) for cUNG and 8 min (50° C.) 30 min (37° C.), 150 min (25° C.) and 2.6 h (4° C.) for rhUNG.
(§1) Assays were done in a volume of 20 μl as described in standard assay using the PCR generated substrate. The assay mixtures were as described in standard assay conditions and were adjusted to pH 8.0 for all temperatures. The temperature range used was 5° C. to 60° C. The activity was measured in a sequential manner with 15 min intervals, between each temperature. The enzymes used were diluted in standard dilution buffer (5 mM Tris/HCl, 10 mM NaCl, 1% (v/v) glycerol, pH 8.0) and placed on ice.
Temperature: UNG (0.01 U) was preincubated (in a total volume of 75 μl) in 10 mM Tris/HCl, 50 mM NaCl, 1 mM EDTA, 1% glycerol, pH 8.0 (adjusted at each temperature).

[3] = Effect of pH on stability (residual UNG activity); format: physicochemical
Experimental: In the different pH-buffer, 1 U of cUNG (Δ) or rhUNG (□) were incubated for 10 minutes at 37° C. Then 5 μl aliquotes were transfered to the assay mixture, and residual activity was measured using standard assay conditions as described in materials and methods. One hundred percent activity was measured directly from a sample diluted at pH 8.0 without any incubation step.
pH: UNG (0.01 U) was preincubated (in a total volume of 75 μl) for 10 min at 37° in buffers containing 10 mM buffer, 10 mM NaCl, 1 mM EDTA, 1% glycerol, with pH ranging from 9.5-6.5 with 0.5 pH unit intervals using diethanolamine/HCl (9.5-8.5), Tris/HCl (8.5-7.5), MOPS/NaOH (7.5-6.5) and MES/NaOH (6.5-5.5) as buffer components. Aliquots of 5 μl were transferred to the assay mixtures and residual activity was measured using standard assay conditions.

[4] = test system: PCR generated uracil-containing DNA substrate; experiment: Determination of temperature optimum / temperature profile; format: biochemical
Experimental: Due to prolonged incubation of the enzyme sample on ice during the experiment, activity is corrected with respect to the stability of the enzyme, as described in material and methods.
Enzyme activity was measured as described in material and methods. The percent UNG activity is set relative to the highest value for cUNG (45° C.) and rhUNG (50° C.) respectively. Due to prolonged incubation of the enzyme samples on ice during the experiment, activity is corrected with respect to the stability of the enzymes, as described in material and methods.
as §1

[5] = test system: PCR generated uracil-containing DNA substrate; settings: literature value (64); cited from earlier work
[6] = test system: cUNG (Atlantic cod uracil-DNA glycosylase); experiment: Inhibition of cUNG with uracil-DNA glycosylase inhibitor (Ugi); format: biochemical, Atlantic cod (Gadus morhua); settings: 6.65×10^−4 U cUNG, 1.25×10^3 U to 2.00×10^2 U Ugi
Experimental: 6.65×10^−4 U of cUNG was incubated with 1.25×10^3 U to 2.00×10^2 U of Ugi using standard assay conditions, as described in material and methods. One Unit of Ugi inhibit one Unit of UNG-activity, where the UNG-activty is defined as releasing 60 pmol of uracil per min at 37° C.
Uracil-DNA glycosylase activity was measured in a final volume of 20 μl, containing 70 mM Tris/HCl, 10 mM NaCl, 1 mM EDTA, 100 μg/ml BSA and 230 ng nick-substrate or 71 ng PCR-substrate. The reaction mixture was incubated 10 min at 37° C., and terminated with the addition of 20 μl of ice cold single stranded calf thymus DNA (1 mg/ml) and 500 μl 10% (w/v) TCA. Samples were incubated on ice for 15 min, and centrifuged at 16,000 g for 10 min. Supernatants with acid soluble ^3H-uracil were analyzed using a liquid scintillation counter.
Activity measurements using PCR-substrate were performed with 6.65×10^−4 U of purified cUNG. Various concentrations of uracil (0, 1, 2 and 5 mM) or Ugi-inhibitor (1.25×10^3 U to 2.00×10^2 U) were added to the assay mixtures (on ice). Activity was then measured as described under standard assay conditions.
Target sequence in this assay (as listed by the source): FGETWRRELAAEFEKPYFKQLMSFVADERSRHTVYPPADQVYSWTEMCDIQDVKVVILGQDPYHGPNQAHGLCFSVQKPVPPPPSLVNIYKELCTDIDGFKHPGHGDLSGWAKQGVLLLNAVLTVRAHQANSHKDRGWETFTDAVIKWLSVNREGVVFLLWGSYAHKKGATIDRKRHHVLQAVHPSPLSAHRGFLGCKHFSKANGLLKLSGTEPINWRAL

[7] = cited from earlier work; for half-life: literature (45)

O=c1cc[nH]c(=O)[nH]1 [uracil]
inhibition of cUNG activity ([1]; 1 mM uracil in the assay mixture): more than 50%
inhibition of cUNG activity ([1]; 5 mM free uracil in the assay mixture): 78%

B1: rhUNG: purified recombinant mesophilic human UNG (UNGΔ84) provided by Dr. Krokan (protein, UniProt P13051 85-304, looked up, fragment)
chain: LAARNVPVGFGESWKKHLSGEFGKPYFIKLMGFVAEERKHYTVYPPPHQVFTWTQMCDIKDVKVVILGQDPYHGPNQAHGLCFSVQRPVPPPPSLENIYKELSTDIEDFVHPGHGDLSGWAKQGVLLLNAVLTVRAHQANSHKERGWEQFTDAVVSWLNQNSNGLVFLLWGSYAQKKGSAIDRKRHHVLQTAHPSPLSVYRGFFGCRHFSKTNELLQKSG
half-life ([2]; 4° C., pH 8.0): 156 min
half-life ([2]; 25° C., pH 8.0): 150 min
half-life ([2]; 37° C., pH 8.0): 30 min
half-life ([2]; 50° C., pH 8.0): 8 min
half-life ([2]; enzyme in standard dilution buffer on ice): 156 min
residual activity ([3]; pH 10.0, 10 min at 37° C.): 66%
pH range in which most stable ([3]; preincubated 10 min at 37° C.): 7.0-9.5
temperature of highest activity value in temperature profile ([4]; FIG. 6, 5-60° C.): 50 °C
relative activity compared with cUNG ([4]; temperatures higher than 45° C.): higher relative activity
temperature optimum [5]: 45 °C

B2: Ugi: Bacillus subtilis bacteriophage PBS2 UDG-inhibitor, obtained from New England Biolabs (protein)
chain: MTNLSDIIEKETGKQLVIQESILMLPEEVEEVIGNKPESDILVHTAYDESTDENVMLLTSDAPEYKPWALVIQDSNGENKIKML
effect of Ugi on cUNG activity [6]: clearly inhibited

B3: E. coli UNG: commercially available UNG (or UDG) from Escherichia coli used in carry-over prevention (protein, UniProt P12295 2-229, looked up)
Uracil-DNA glycosylase: ANELTWHDVLAEEKQQPYFLNTLQTVASERQSGVTIYPPQKDVFNAFRFTELGDVKVVILGQDPYHGPGQAHGLAFSVRPGIAIPPSLLNMYKELENTIPGFTRPNHGYLESWARQGVLLLNTVLTVRAGQAHSHASLGWETFTDKVISLINQHREGVVFLLWGSHAQKKGAIIDKQRHHVLKAPHPSPLSAHRGFFGCNHFVLANQWLEQRGETPIDWMPVLPAESE
half-life ([7]; 40° C.): 27 min
half-life ([7]; 45° C.): 8 min
inactivation by heat treatment / reactivation ([7]; literature (60), (45)): not completely inactivated

— patent US7037703B2, “COD URACIL-DNA GLYCOSYLASE, GENE CODING THEREFORE, RECOMBINANT DNA CONTAINING SAID GENE OR OPERATIVE PARTS THEREOF, A METHOD FOR PREPARING SAID PROTEIN AND THE USE OF SAID PROTEIN OR SAID OPERATIVE PARTS THEREOF IN MONITORING OR CONTROLLING PCR” (Biotec Pharmacon ASA, priority 2000, dated 2006)
